{"source": "FireProtDB (doi:10.1021/bi500238q)", "proteins": {"B1": {"name": "Dihydrofolate reductase wild type, Q5KZ26 (protein)", "chain": "MISHIVAMDENRVIGKDNRLPWHLPADLAYFKRVTMGHAIVMGRKTFEAIGRPLPGRDNVVVTRNRSFRPEGCLVLHSLEEVKQWIASRADEVFIIGGAELFRATMPIVDRLYVTKIFASFPGDTFYPPISDDEWEIVSYTPGGKDEKNPYEHAFIIYERKKAK"}}, "settings": "Geobacillus kaustophilus (strain HTA426), pH 7, Thermal, CD, Potassium Phosphate Buffer 10 mM, whole UniProt chain shown", "data": [{"protein": "B1", "values": [{"measurement": "Tm", "setting": "KCl 0.1 M", "value": 66.9, "unit": "°C"}, {"measurement": "Tm", "setting": "KCl 0.2 M", "value": 67.9, "unit": "°C"}, {"measurement": "Tm", "setting": "KCl 0.5 M", "value": 68.3, "unit": "°C"}, {"measurement": "Tm", "setting": "KCl 1 M", "value": 70.1, "unit": "°C"}, {"measurement": "Tm", "setting": "KCl 1.5 M", "value": 71.7, "unit": "°C"}, {"measurement": "Tm", "setting": "KCl 2 M", "value": 73.8, "unit": "°C"}, {"measurement": "Tm", "setting": "KF 0.1 M", "value": 66.8, "unit": "°C"}, {"measurement": "Tm", "setting": "KF 0.2 M", "value": 67.5, "unit": "°C"}, {"measurement": "Tm", "setting": "KF 0.5 M", "value": 68.6, "unit": "°C"}, {"measurement": "Tm", "setting": "KF 1 M", "value": 71, "unit": "°C"}, {"measurement": "Tm", "setting": "KF 1.5 M", "value": 73.8, "unit": "°C"}, {"measurement": "Tm", "setting": "KF 2 M", "value": 74.6, "unit": "°C"}, {"measurement": "Tm", "setting": "NaCl 0.1 M", "value": 66.8, "unit": "°C"}, {"measurement": "Tm", "setting": "NaCl 0.2 M", "value": 67.2, "unit": "°C"}, {"measurement": "Tm", "setting": "NaCl 0.5 M", "value": 67.6, "unit": "°C"}, {"measurement": "Tm", "setting": "NaCl 1 M", "value": 69.5, "unit": "°C"}, {"measurement": "Tm", "setting": "NaCl 1.5 M", "value": 71.5, "unit": "°C"}, {"measurement": "Tm", "setting": "NaCl 2 M", "value": 73.4, "unit": "°C"}]}]}
